{"source": "IntAct's records for PubMed 27599036", "parents": {"B1": {"name": "Ferrochelatase, mitochondrial (Homo sapiens), P22830 (parent)", "chain": "MRSLGANMAAALRAAGVLLRDPLASSSWRVCQPWRWKSGAAAAAVTTETAQHAQGAKPQVQPQKRKPKTGILMLNMGGPETLGDVHDFLLRLFLDRDLMTLPIQNKLAPFIAKRRTPKIQEQYRRIGGGSPIKIWTSKQGEGMVKLLDELSPNTAPHKYYIGFRYVHPLTEEAIEEMERDGLERAIAFTQYPQYSCSTTGSSLNAIYRYYNQVGRKPTMKWSTIDRWPTHHLLIQCFADHILKELDHFPLEKRSEVVILFSAHSLPMSVVNRGDPYPQEVSATVQKVMERLEYCNPYRLVWQSKVGPMPWLGPQTDESIKGLCERGRKNILLVPIAFTSDHIETLYELDIEYSQVLAKECGVENIRRAESLNGNPLFSKALADLVHSHIQSNELCSKQLTLSCPLCVNPVCRETKSFFTSQQL"}}, "data": [{"variants_of": "B1", "conditions": "with pgrc1_human PGRMC1, O00264", "values": [{"variant": "MRSLGANMAAALRAAGVLLRDPLASSSWRVCQPWRWKSGAAAAAVTTETAQHAQGAKPQVQPQKRKPKTGILMLNMGGPETLGDVHDFLLRLFLDRDLMTLPIQNKLAPFIAKRRTPKIQEQYRRIGGGSPIKIWTSKQGEGMVKLLDELSPNTAPHKYYIGFRYVHPLTEEAIEEMERDGLERAIAFTQYPQYSCSTTGSSLNAIYRYYNQVGRKPTMKWSTIDRWPTHHLLIQCFADHILKELDHFPLEKRSEVVILFSAHSLPMSVVNRGDPYPQEVSATVQKVMERLEYCNPYRLVWQSKVGPMPWLGPQTDESIKGLCERGRKNILLVPIAFTSDHIKTLYELDIEYSQVLAKECGVENIRRAESLNGNPLFSKALADLVHSHIQSNELCSKQLTLSCPLCVNPVCRETKSFFTSQQL", "note": "[E343K]", "effect of a mutation on the interaction": "disrupting interaction strength"}, {"variant": "MRSLGANMAAALRAAGVLLRDPLASSSWRVCQPWRWKSGAAAAAVTTETAQHAQGAKPQVQPQKRKPKTGILMLNMGGPETLGDVHDFLLRLFLDRDLMTLPIQNKLAPAIAKRRTPKIQEQYRRIGGGSPIKIWTSKQGEGMVKLLDELSPNTAPHKYYIGFRYVHPLTEEAIEEMERDGLERAIAFTQYPQYSCSTTGSSLNAIYRYYNQVGRKPTMKWSTIDRWPTHHLLIQCFADHILKELDHFPLEKRSEVVILFSAHSLPMSVVNRGDPYPQEVSATVQKVMERLEYCNPYRLVWQSKVGPMPWLGPQTDESIKGLCERGRKNILLVPIAFTSDHIETLYELDIEYSQVLAKECGVENIRRAESLNGNPLFSKALADLVHSHIQSNELCSKQLTLSCPLCVNPVCRETKSFFTSQQL", "note": "[F110A]", "effect of a mutation on the interaction": "increasing interaction strength"}]}]}
